# Patent publication US8580932B2, “Method of thermostabilization of a protein and/or stabilization towards organic solvents” (Masarykova Univerzita, priority 2011, dated 2013)
# Residue numbers refer to the chain shown, from its start. In names and notes the source's numbering stands.
# B1: DhaA: haloalkane dehalogenase DhaA from Rhodococcus rhodochrous NCIMB13064 (protein, UniProt P0A3G2 1-293, looked up)
# Haloalkane dehalogenase: MSEIGTGFPFDPHYVEVLGERMHYVDVGPRDGTPVLFLHGNPTSSYLWRNIIPHVAPSHRCIAPDLIGMGKSDKPDLDYFFDDHVRYLDAFIEALGLEEVVLVIHDWGSALGFHWAKRNPERVKGIACMEFIRPIPTWDEWPEFARETFQAFRTADVGRELIIDQNAFIEGALPKCVVRPLTEVEMDHYREPFLKPVDREPLWRFPNELPIAGEPANIVALVEAYMNWLHQSPVPKLLFWGTPGVLIPPAEAARLAESLPNCKTVDIGPGLHYLQEDNPDLIGSEIARWLPAL
# B2: L177P: LinB variant in the position 177 (protein, UniProt D4Z2G1 2-296, looked up, variant L177P)
# Haloalkane dehalogenase: SLGAKPFGEKKFIEIKGRRMAYIDEGTGDPILFQHGNPTSSYLWRNIMPHCAGLGRLIACDLIGMGDSDKLDPSGPERYAYAEHRDYLDALWEALDLGDRVVLVVHDWGSALGFDWARRHRERVQGIAYMEAIAMPIEWADFPEQDRDLFQAFRSQAGEELVLQDNVFVEQVLPGPILRPLSEAEMAAYREPFLAAGEARRPTLSWPRQIPIAGTPADVVAIARDYAGWLSESPIPKLFINAEPGALTTGRMRDFCRTWPNQTEITVAGAHFIQEDSPDEIGAAIAAFVRRLRPA
# B3: L177H: LinB variant in the position 177 (protein, UniProt D4Z2G1 2-296, looked up, variant L177H)
# Haloalkane dehalogenase: B2 Haloalkane dehalogenase with P176H
# B4: L177K: LinB variant in the position 177 (protein, UniProt D4Z2G1 2-296, looked up, variant L177K)
# Haloalkane dehalogenase: B2 Haloalkane dehalogenase with P176K
# B5: L177M: LinB variant in the position 177 (protein, UniProt D4Z2G1 2-296, looked up, variant L177M)
# Haloalkane dehalogenase: B2 Haloalkane dehalogenase with P176M
# B6: L177Q: LinB variant in the position 177 (protein, UniProt D4Z2G1 2-296, looked up, variant L177Q)
# Haloalkane dehalogenase: B2 Haloalkane dehalogenase with P176Q
# Experiments:
# [1] = Steady-state kinetics of haloalkane dehalogenases by isothermal titration calorimetry; assay type: biochemical; settings: pH 8.6, 25° C.; for ar (relative activity): percentage of specific activity in glycine buffer
# Method: Substrate to product conversion by the action of enzymes was carried out using VP-ITC isothermal titration microcalorimeter (MicroCal), by single injection method. The substrate 1-iodohexane was dissolved in 100 mM glycine buffer (pH 8.6) containing appropriate volume of organic solvent and equilibrated at 25° C. in the sample cell (1.4 ml). The reaction was initiated by injecting of 10 μl of 1 mg/ml enzyme solution dialyzed overnight against the same solution as used for dissolving of the substrate. The heat flow (μcal s^−1) was recorded as a function of time. The reaction rate was calculated according to the equation:
# [formula] where V is the volume of the sample cell, [S] is substrate concentration and ΔH is the enthalpy of the conversion of substrate to product and was determined experimentally by titration of the substrate into the sample cell containing the enzyme. The evaluated rate of substrate depletion (−d[S]/dt), and corresponding substrate concentration were fitted by nonlinear regression to kinetic models by using Origin 6.1 software (OriginLab, Massachusetts, USA). Results
# [2] = Haloalkane dehalogenase activity assay in the presence of organic solvents; assay type: biochemical; settings: 100 mM glycine buffer (pH 8.6), 37° C., 1-iodohexane (FIG. 12)
# Method: Haloalkane dehalogenase activity was assayed at 37° C. by a previously described method (Iwasaki, I., Utsumi, S., and Ozawa, T. 1952: New colorimetric determination of chloride using mercuric thiocyanate and ferric ion. Bulletin of the Chemical Society of Japan 25: 226-226). The released halide ions were analysed spectrophotometrically at 460 nm after a reaction with mercuric thiocyanate and ferric ammonium sulphate. The reaction mixture was composed of 100 mM glycine buffer (pH 8.6), 2 μl of substrate 1-iodohexane and appropriate amount of organic solvent. Solvent concentration was increased until the enzyme activity dropped below fifty per cent. The reaction was initiated by the addition of enzyme in a final concentration of 0.15 μM. The reaction was monitored by withdrawing samples at periodical intervals from the reaction mixture. The samples were immediately mixed with 35% nitric acid to terminate the reaction. Dehalogenation activity was quantified as a rate of product formation in time. Each activity was measured in 3-5 independent replicates and expressed as mean values of relative activity, represented percentage of activity in pure buffer.
# [3] = Kinetic half-life assay of DhaA variants in 40% (v/v) DMSO; assay type: biochemical, Rhodococcus rhodochrous NCIMB 13064; settings: 60 mM glycine buffer (pH 8.6), 37° C.
# [4] = 12 different substrates; cited from earlier work
# [5] = assay type: physicochemical, Sphingobium japonicum UT26; settings: for ΔTm: compared to the wild type LinB; for Tm: ellipticity at 222 nm, 20 to 80° C., 1° C./min, 50 mM potassium phosphate buffer (pH 7.5)
# Method: Circular dichroism spectra were recorded at 20° C. using a Jasco J-810 spectrometer (Jasco, Tokyo, Japan) coupled with Peltier temperature controller. Data were collected from 185 to 260 nm, at 100 nm/min, 1 s response time and 2 nm bandwidth using a 0.1 cm quartz cuvette containing the enzyme variant in 50 mM potassium phosphate buffer (pH 7.5). Each spectrum shown is the average of ten individual scans and was corrected for absorbance caused by the buffer. CD data were expressed in terms of the mean residue ellipticity (ΘMRE) using the equation: […]
# Thermal unfolding of LinB enzyme variants was followed by monitoring the ellipticity at 222 nm over the temperature range of 20 to 80° C., with a resolution 0.1° C., at a heating rate 1° C./min. Recorded thermal denaturation curves were roughly normalized to represent signal changes between approximately 1 and 0 and fitted to sigmoidal curves using software Origin 6.1 (OriginLab, Massachusetts, USA). The melting temperatures (Tm) were evaluated as a midpoint of the normalized thermal transition.
# [6] = formamide 5% (v/v), 1-iodohexane
molecule,measurement,setting,value
B1,K0.5 (concentration of substrate at half maximal velocity),[1]; [6],4.2 µM
same,Ksi (substrate inhibition constant),[1]; [6],0.6 mM
same,nH (Hill coefficient),[1]; [6],2.0
same,ar (relative activity),[1]; formamide 5% (v/v),130%
same,ar (relative activity),[1]; glycine buffer (reference),100%
same,K0.5 (concentration of substrate at half maximal velocity),"[1]; glycine buffer, 1-iodohexane",8.5 µM
same,Ksi (substrate inhibition constant),"[1]; glycine buffer, 1-iodohexane",1.1 mM
same,kcat,"[1]; glycine buffer, 1-iodohexane",0.9 s⁻¹
same,nH (Hill coefficient),"[1]; glycine buffer, 1-iodohexane",2.0
same,Specific activity in glycine buffer,[2],0.0355 μmol s^−1 mg^−1 of enzyme
same,deactivation in the presence of DMSO,[3],proceeded rapidly
B2,activity with tested substrates,[4],did not show activity with any of tested substrates
B3,ΔTm,[5],0.8 °C
same,Tm,[5],48.85 ± 0.28 °C
B4,thermal stability compared to the wild type enzyme,[5],improvement in thermal stability
same,ΔTm,[5],3.0 °C
same,Tm,[5],51.01 ± 0.54 °C
B5,ΔTm,[5],−0.3 °C
same,Tm,[5],47.78 ± 0.17 °C
B6,ΔTm,[5],0.0 °C
same,Tm,[5],48.08 ± 0.17 °C
